Source: publication PMC9482650, “Quantitative fragmentomics allow affinity mapping of interactomes” (Nature Communications, 2022)
Blank lines part the entries; values can stand above or below the binder they belong to.

Assays:
Assay in all cases: holdup assay
Set-up in all cases: key: below the threshold = too weak to quantify, mostly under pKd 3.1 to 4
GRIP2_6, Q9C0E4 = target: GRIP2_6, Q9C0E4
GRIP2_5, Q9C0E4 = target: GRIP2_5, Q9C0E4
TJP3_3, O95049 = target: T1, TJP3_3, O95049
T1 sequence (O95049 375-456, limits assumed, looked up): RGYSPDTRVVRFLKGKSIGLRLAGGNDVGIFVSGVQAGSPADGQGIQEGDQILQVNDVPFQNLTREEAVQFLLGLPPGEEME

PDZRN3_1, Q9UPQ7 = target: T2, PDZRN3_1, Q9UPQ7
T2 sequence (Q9UPQ7 244-349, limits assumed, looked up): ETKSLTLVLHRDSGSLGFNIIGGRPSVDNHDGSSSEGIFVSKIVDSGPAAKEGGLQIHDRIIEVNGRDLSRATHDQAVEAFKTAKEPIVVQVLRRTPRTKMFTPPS

ARHGEF12, Q9NZN5-2 = target: ARHGEF12, Q9NZN5-2
Sequence of ARHGEF12, Q9NZN5-2 (Q9NZN5 other isoform, or with tags, fused parts or gaps): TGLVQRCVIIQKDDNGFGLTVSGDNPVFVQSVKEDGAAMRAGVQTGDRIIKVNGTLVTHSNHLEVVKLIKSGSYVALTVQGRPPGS

GRID2IP_2, A4D2P6 = target: GRID2IP_2, A4D2P6
Sequence of GRID2IP_2, A4D2P6 (A4D2P6 272-370): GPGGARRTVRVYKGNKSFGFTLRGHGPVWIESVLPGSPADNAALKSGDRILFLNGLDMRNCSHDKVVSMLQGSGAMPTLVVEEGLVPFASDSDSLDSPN

GRIP1_7, Q9Y3R0 = target: T3, GRIP1_7, Q9Y3R0
T3 sequence (Q9Y3R0 999-1096, limits assumed, looked up): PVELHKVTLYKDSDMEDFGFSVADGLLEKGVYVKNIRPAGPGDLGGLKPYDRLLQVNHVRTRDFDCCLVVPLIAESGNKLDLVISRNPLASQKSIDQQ

MPP2, Q14168 = target: T4, MPP2, Q14168
T4 sequence (Q14168 180-250, limits assumed, looked up): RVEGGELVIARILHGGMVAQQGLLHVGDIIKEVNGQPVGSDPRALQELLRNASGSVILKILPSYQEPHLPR

GRID2IP_1, A4D2P6 = target: GRID2IP_1, A4D2P6
Sequence of GRID2IP_1, A4D2P6 (A4D2P6 1-87): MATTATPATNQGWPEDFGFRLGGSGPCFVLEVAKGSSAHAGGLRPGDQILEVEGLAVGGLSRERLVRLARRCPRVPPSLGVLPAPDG

LDB3, O75112 = target: LDB3, O75112
Sequence of LDB3, O75112 (O75112 1-94): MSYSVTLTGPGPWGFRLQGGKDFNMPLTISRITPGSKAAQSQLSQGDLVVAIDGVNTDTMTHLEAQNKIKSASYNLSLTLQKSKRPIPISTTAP

SCRIB_1, Q14160 = target: SCRIB_1, Q14160
Sequence of SCRIB_1, Q14160 (Q14160 718-814): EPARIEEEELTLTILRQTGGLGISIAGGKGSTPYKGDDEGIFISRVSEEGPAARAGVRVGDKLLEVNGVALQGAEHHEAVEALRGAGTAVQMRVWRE

HTRA3, P83110 = target: T5, HTRA3, P83110
T5 sequence (P83110 354-453, limits assumed, looked up): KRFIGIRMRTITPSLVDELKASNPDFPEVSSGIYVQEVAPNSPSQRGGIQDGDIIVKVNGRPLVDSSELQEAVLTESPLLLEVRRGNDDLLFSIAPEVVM

TX1BP3, O14907 = target: T6, TX1BP3, O14907
T6 sequence (O14907 10-122, limits assumed, looked up): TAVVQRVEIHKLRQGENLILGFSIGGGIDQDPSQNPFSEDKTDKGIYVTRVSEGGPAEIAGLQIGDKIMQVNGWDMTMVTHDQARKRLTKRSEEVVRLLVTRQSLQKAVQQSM

MAST2, Q6P0Q8 = target: MAST2, Q6P0Q8
Sequence of MAST2, Q6P0Q8 (Q6P0Q8 1099-1202): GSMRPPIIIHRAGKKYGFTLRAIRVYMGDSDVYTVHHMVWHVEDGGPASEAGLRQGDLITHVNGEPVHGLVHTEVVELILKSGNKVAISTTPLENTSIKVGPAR

FRMPD1, Q5SYB0 = target: T7, FRMPD1, Q5SYB0
T7 sequence (Q5SYB0 52-145, limits assumed, looked up): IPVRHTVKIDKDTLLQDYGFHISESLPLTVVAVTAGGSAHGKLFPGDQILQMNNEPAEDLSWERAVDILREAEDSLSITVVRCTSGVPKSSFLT

DLG4_1, P78352 = target: DLG4_1, P78352
Sequence of DLG4_1, P78352 (P78352 62-152): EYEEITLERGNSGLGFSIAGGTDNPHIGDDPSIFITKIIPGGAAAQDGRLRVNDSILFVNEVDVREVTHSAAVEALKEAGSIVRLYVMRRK

DFNB31_2, Q9P202 = target: T8, DFNB31_2, Q9P202
T8 sequence (Q9P202 274-371, limits assumed, looked up): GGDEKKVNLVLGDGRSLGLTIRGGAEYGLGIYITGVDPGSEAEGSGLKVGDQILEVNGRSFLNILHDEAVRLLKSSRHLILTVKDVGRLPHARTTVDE

LNX1_1, Q8TBB1 = target: LNX1_1, Q8TBB1
Sequence of LNX1_1, Q8TBB1 (Q8TBB1 261-371): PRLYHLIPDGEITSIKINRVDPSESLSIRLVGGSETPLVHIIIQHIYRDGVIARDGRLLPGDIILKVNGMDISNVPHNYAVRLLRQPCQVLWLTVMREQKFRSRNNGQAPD

SNTB1, Q13884 = target: T9, SNTB1, Q13884
T9 sequence (Q13884 107-205, limits assumed, looked up): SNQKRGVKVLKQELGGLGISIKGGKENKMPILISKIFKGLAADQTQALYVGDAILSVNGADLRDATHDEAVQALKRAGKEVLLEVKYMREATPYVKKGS

SNTA1, Q13424 = target: T10, SNTA1, Q13424
T10 sequence (Q13424 82-180, limits assumed, looked up): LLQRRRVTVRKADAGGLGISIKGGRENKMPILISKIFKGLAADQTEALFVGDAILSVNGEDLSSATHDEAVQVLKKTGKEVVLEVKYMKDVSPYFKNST

GIPC2, Q8TF65 = target: GIPC2, Q8TF65
Sequence of GIPC2, Q8TF65 (Q8TF65 112-203): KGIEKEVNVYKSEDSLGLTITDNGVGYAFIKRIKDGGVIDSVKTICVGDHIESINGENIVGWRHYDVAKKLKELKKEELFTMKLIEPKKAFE

SCRIB_2, Q14160 = target: SCRIB_2, Q14160
Sequence of SCRIB_2, Q14160 (Q14160 857-960): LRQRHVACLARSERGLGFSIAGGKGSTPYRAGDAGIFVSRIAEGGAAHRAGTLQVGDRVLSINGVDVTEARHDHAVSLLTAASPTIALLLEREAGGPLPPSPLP

DLG4_3, P78352 = target: DLG4_3, P78352
Sequence of DLG4_3, P78352 (P78352 306-403): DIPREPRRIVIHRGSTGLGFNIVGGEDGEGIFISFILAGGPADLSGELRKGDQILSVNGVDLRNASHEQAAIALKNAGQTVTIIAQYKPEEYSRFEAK

SCRIB_3, Q14160 = target: SCRIB_3, Q14160
Sequence of SCRIB_3, Q14160 (Q14160 999-1103): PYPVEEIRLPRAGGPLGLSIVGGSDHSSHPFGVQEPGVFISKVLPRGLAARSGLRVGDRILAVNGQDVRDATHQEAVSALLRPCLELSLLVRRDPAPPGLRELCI

MPP6, Q9NZW5 = target: T11, MPP6, Q9NZW5
T11 sequence (Q9NZW5 125-219, limits assumed, looked up): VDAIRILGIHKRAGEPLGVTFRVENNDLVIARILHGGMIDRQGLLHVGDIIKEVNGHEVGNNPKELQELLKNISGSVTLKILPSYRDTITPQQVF

GRIP2_7, Q9C0E4 = target: GRIP2_7, Q9C0E4
Sequence of GRIP2_7, Q9C0E4 (Q9C0E4 934-1023): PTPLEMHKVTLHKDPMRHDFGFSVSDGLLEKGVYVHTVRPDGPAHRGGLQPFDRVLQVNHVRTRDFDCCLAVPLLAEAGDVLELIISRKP

MAGI2_2, Q86UL8 = target: MAGI2_2, Q86UL8
Sequence of MAGI2_2, Q86UL8 (Q86UL8 410-522): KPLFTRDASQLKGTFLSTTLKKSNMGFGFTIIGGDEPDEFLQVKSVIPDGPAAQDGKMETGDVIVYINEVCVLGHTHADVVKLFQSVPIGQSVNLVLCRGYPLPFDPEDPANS

[1] = plain residues with an end cap or a label only (N-terminal biotin on a linker: ahx)
[2] = plain residues with an end cap or a label only (N-terminal biotin on a linker: ttds)

Sequence of GRIP2_6, Q9C0E4 (Q9C0E4 648-740): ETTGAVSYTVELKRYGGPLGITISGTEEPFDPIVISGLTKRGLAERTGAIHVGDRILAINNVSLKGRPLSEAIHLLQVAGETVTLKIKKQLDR
Sequence of GRIP2_5, Q9C0E4 (Q9C0E4 544-642): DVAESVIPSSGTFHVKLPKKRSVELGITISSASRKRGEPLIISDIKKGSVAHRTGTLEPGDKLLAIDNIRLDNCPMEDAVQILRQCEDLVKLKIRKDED

pKd (GRIP2_6, Q9C0E4; [1]): below the threshold
pKd (GRIP2_5, Q9C0E4; [1]): below the threshold
pKd (TJP3_3, O95049; [1]): below the threshold
pKd (PDZRN3_1, Q9UPQ7; [1]): below the threshold
pKd (ARHGEF12, Q9NZN5-2; [1]): 4.44
pKd (GRID2IP_2, A4D2P6; [1]): 3.48
pKd (GRIP1_7, Q9Y3R0; [1]): below the threshold
pKd (MPP2, Q14168; [1]): below the threshold
pKd (GRID2IP_1, A4D2P6; [1]): below the threshold
pKd (LDB3, O75112; [1]): below the threshold
pKd (SCRIB_1, Q14160; [1]): below the threshold
pKd (HTRA3, P83110; [1]): below the threshold
pKd (TX1BP3, O14907; [1]): below the threshold
pKd (MAST2, Q6P0Q8; [1]): 5.17
pKd (FRMPD1, Q5SYB0; [1]): below the threshold
pKd (DLG4_1, P78352; [1]): 3.93
pKd (DFNB31_2, Q9P202; [1]): below the threshold
pKd (LNX1_1, Q8TBB1; [1]): 3.72
pKd (SNTB1, Q13884; [1]): 3.64
pKd (SNTA1, Q13424; [1]): below the threshold
pKd (GIPC2, Q8TF65; [1]): below the threshold
pKd (SCRIB_2, Q14160; [1]): 3.82
pKd (DLG4_3, P78352; [1]): below the threshold
pKd (SCRIB_3, Q14160; [1]): 4.11
pKd (MPP6, Q9NZW5; [1]): below the threshold
pKd (GRIP2_7, Q9C0E4; [1]): below the threshold
pKd (MAGI2_2, Q86UL8; [1]): below the threshold
Binder: KDECVIATEV [DLL1, O00548]

pKd (GRIP2_6, Q9C0E4; [2]): below the threshold
pKd (GRIP2_5, Q9C0E4; [2]): below the threshold
pKd (TJP3_3, O95049; [2]): below the threshold
pKd (PDZRN3_1, Q9UPQ7; [2]): below the threshold
pKd (ARHGEF12, Q9NZN5-2; [2]): 3.98
pKd (GRID2IP_2, A4D2P6; [2]): 3.6
pKd (GRIP1_7, Q9Y3R0; [2]): below the threshold
pKd (MPP2, Q14168; [2]): below the threshold
pKd (GRID2IP_1, A4D2P6; [2]): below the threshold
pKd (LDB3, O75112; [2]): below the threshold
pKd (SCRIB_1, Q14160; [2]): 3.51
pKd (HTRA3, P83110; [2]): below the threshold
pKd (TX1BP3, O14907; [2]): 4.31
pKd (MAST2, Q6P0Q8; [2]): 4.83
pKd (FRMPD1, Q5SYB0; [2]): below the threshold
pKd (DLG4_1, P78352; [2]): 3.83
pKd (DFNB31_2, Q9P202; [2]): below the threshold
pKd (LNX1_1, Q8TBB1; [2]): 3.84
pKd (SNTB1, Q13884; [2]): 3.65
pKd (SNTA1, Q13424; [2]): below the threshold
pKd (GIPC2, Q8TF65; [2]): below the threshold
pKd (SCRIB_2, Q14160; [2]): below the threshold
pKd (DLG4_3, P78352; [2]): below the threshold
pKd (SCRIB_3, Q14160; [2]): 3.93
pKd (MPP6, Q9NZW5; [2]): below the threshold
pKd (GRIP2_7, Q9C0E4; [2]): below the threshold
pKd (MAGI2_2, Q86UL8; [2]): below the threshold
Binder: KQVVPFSSSV [GDA, Q9Y2T3]
